Measured values as given in the RNAGym collection of RNA variant scans (doi:10.1073/pnas.2313332121).
Variants at the floor of the assay were thinned out.

B1: TPR 5TU (parent)
chain: GGAUCUUCUCGAUCUAACAAAAAAGACAAAUCUGCCACAAAGCUUGAGAGCAUCUUCGGAUGCAGAGGCGGCAGCCUUCGGUGGCGCGAUAGCGCCAACGUUCUCAACUAUGACACGCAAAACGCGUGCUCCGUUGAAUGGAGUUUAUCAUG

Variants of: B1
Assay: polymerase ribozyme fitness, log enrichment relative to wild type (log ratio); higher = more active; in vitro selection for triplet polymerase activity
Method in brief: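 Frozen incubation at −7 °C formed the core of a single, triplicate in vitro selection round applied to PCR-built, transcribed mutant libraries of each subunit of a heterodimeric triplet polymerase ribozyme. Extended constructs were gel-excised, captured with streptavidin beads and amplified by RT-PCR, and input and output libraries were Illumina-sequenced with a filter of ≥10 input reads and ≥1 read per output. Fitness is the logarithm of genotype enrichment relative to wild-type enrichment, with inverse-variance-weighted replicate averaging, and the logarithm is base 2.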

Variant	polymerase ribozyme fitness (log ratio)
A21U C57A C76U C116A	0.702
A21U C93G	-2.5
A22G A28G A52U G80A C93G U101C A113U G140U	≤ -4.2
A21U U78C G86C U148A	≤ -4.2
A22C A137G	-2.58
A21U A113U A137G U144A	-3.99
A22C U144G	0.903
A21G U31A C95A	0.669
A22G C36U C87U	-3.06
A21U C36A A64C G86C	≤ -4.2
A21U A24U U44A U53G U78G A97U A137C G141C	≤ -4.2
A22G C27A A29G C38U G50C C72U G84A C118A	≤ -4.2
A21U C43A U78G G84U C93U C103G A115G	≤ -4.2
A22C U44A C87U C103U	≤ -4.2
A21U A30G C57U A91U U104A G126A	≤ -4.2
A21U C27U C35A C57A G59C G74C G86U A89G U101G	≤ -4.2
A21U A60U C103G C108U A142G U148C	≤ -4.2
A21G G50C A52C C79U C118U	≤ -4.2
A21U U33G C72A C95U A122U	≤ -4.2
A21U G48A U55A C75U G83C A89G A98U C105U G117A U144C	≤ -4.2
A22C C54U G84U U104G C114G G133U	≤ -4.2
A21U G34U C51U G86A A89U U145G	≤ -4.2
A22G C72G C87U C93A C99A	≤ -4.2
A21U G34A C69A C132G	≤ -4.2

Variant	polymerase ribozyme fitness (log ratio)
A21G U44A G68U G83U A106G A115U C118A A119C C123U U144G	≤ -4.2
A21G U33G A52C U61G A64G U78G C95A A106G A142G	≤ -4.2
A22C A26U U56A G59C C87G U111C	≤ -4.2
A21U U33G A122U U144G	-3.94
A22G C57A G59C A60C	-2.03
A21U G50A C63G A89G C95U C116U	-1.96
A22C A66C C103G G126C	≤ -4.2
A21U C38A U102A A120U A147C	-2.82
A21U G80C C85A U127A	≤ -4.2
A21U A52G C76A G81C C87G C114U A121C U146A	≤ -4.2
A22C U45A	-2.58
A22G C85G A150G	-3.09
A21U A29U U61A	≤ -4.2
A21U G34A G141A C149G	≤ -4.2
A21U A47U C93U	-0.679
A21U A23G	-2.94
A21U A41C G86A G100U A110C	≤ -4.2
A22C U55G G67A U78A C93G C99A C149G	≤ -4.2
A22C A40U C57U G58A G65A C75A G133A A138U A142C	≤ -4.2
A22G C36G G92A A137G	≤ -4.2
A21G G46U	0.452
A21U A22U U53G	-0.816
A22C A28U C105U C123U	≤ -4.2
A21G G81U G86U C123A	-1.08

Variant	polymerase ribozyme fitness (log ratio)
A22C A24G A26U A52G G80A C85G G94U C123U	≤ -4.2
A22C A26C A49C U56A G59U G68U C85U G86U G94U A97G U134A	≤ -4.2
A22C A39C U55A U102G C129U	≤ -4.2
A22G C85U C95G U135G	-3.76
A22C G84A G136C C149A	≤ -4.2
A21U C96U A97U U127C U139G	-2.62
A21G U55G G143C	-1.59
A22G C51U U78G C95U A107G U146C	≤ -4.2
A22C C43U C51U C76A C93A C125G	≤ -4.2
A22G U33C C35U A66C	≤ -4.2
A22G C108G C123G A150G	≤ -4.2
A21U A22U G42A G70C C93U G140C G152U	≤ -4.2
A21U C36G C51U U55C G92U U148A	≤ -4.2
A22C A39C	-2.49
A22C G92C	-1.73
A21U A39C C57U A97G	-2.62
A21G U151C	-3.8
A22C U78C A98G U102G U151G	≤ -4.2
A21U G68C C69G C116U	≤ -4.2
A22C C114A	-3.5
A22C C27A U56A C85U C93A C99G A138U	≤ -4.2
A21U C35U C43U U53A A60U G83C A98G A113G	≤ -4.2
A21G U82A C96A U101G A121U	0.493
A22C G92C U101G C108A A120U	-4.07

Variant	polymerase ribozyme fitness (log ratio)
A22G A39G U61A G88C A121C U146G	≤ -4.2
A21U A41G A60U C85U C103G C123A	-3.69
A21U C27A U44G C87A A137U	≤ -4.2
A21U A24C C27G A28U G88U U102C A107C C114U	≤ -4.2
A21U C72U U77G U82G G100C U135G	≤ -4.2
A22C G50U G67U G74U G92C C149G	≤ -4.2
A21U C32G U55A G83U	≤ -4.2
A22G U55A A89C	-0.257
A22C C87U	-0.775
A22C U56A C57G G86U A142G	-3.37
A21U A41G C95A C96A	-0.65
A21U A26U A28U G67A G88A A122U	≤ -4.2
A21U U44A C51U C57U G65A	≤ -4.2
A21G G81A C95U A107G A119C G141U	≤ -4.2
A21U C105G A113G C116U	-4.07
A22C A23G A49C A66G A113U	≤ -4.2
A21U C51U C93G C105U A120G	-3.58
A21U U104C	0.212
A22C A23G C54U	≤ -4.2
A22G G124A	0.539
A22C C76A A89G C95G	-4.19
A21U G88A	-3.62
A22C A47U C54U G86U C103A	≤ -4.2
A22G G83A C105A	-3.83

Variant	polymerase ribozyme fitness (log ratio)
A22C C38U C69U C85U	-1.31
A21U U53A C57U G83A C95U	-4.06
A22G A30U C36G G83C U146G	≤ -4.2
A22C C69G G81C	-1.85
A21G G80A C99G A119U	-0.387
A21U C38G C54U G92A G117U A121G	≤ -4.2
A21U A40G A60G C96G U146G	-3.99
A21G C96G	0.474
A21G C96U	0.682
A22C C27U U44A A47C U82C C95U A142C	≤ -4.2
A21G U77A A91G	≤ -4.2
A21G G42U C54A C72U C76U C79U G84U	≤ -4.2
A21U C69A G88U A97C	≤ -4.2
A21U A26C	-1.48
A21G G50C G71C C79A C95G A121U U127G G136U U139C A142C U145G	≤ -4.2
A22G A40C U139G	0.649
A21G C85U C96U C105U A106C A138G	≤ -4.2
A21U U78G	≤ -4.2
A21G U33G A52C A64C C75G C93G U151G	≤ -4.2
A22G C54U U56A C76U G94C U145A	-0.624
A21U A24U G94U A97G A150C	≤ -4.2
A21U C32G G50A G83A G136A	≤ -4.2
A21U G71C C93A	≤ -4.2
A22G A52U C85U U109G	-3.97

Variant	polymerase ribozyme fitness (log ratio)
A21U G86A	-0.555
A21U A30C C51U G71U C85U	≤ -4.2
A22C C38U G81U C87G U144A	≤ -4.2
A21U C57U C93U C96A C116U	-1.6
A21U A41U U55G G83A U145A	-2.5
A22G A24U C63G	2.39
A22G C54U C85U C116G	1.12
A22G G70U C118U	-3.77
A21G U139A	-3.9
A21U C38A	0.268
A22G A29U G50A U56G C87U C118U	≤ -4.2
A22G A110G	-3.28
A22G A52G G128C	-3.48
A22G G83C A98U C114U	-3.19
A22C A115C C129G	≤ -4.2
A21G G25A U56A C93U A119G A120C U146C	-3.11
A22C A47C C51G A64G C72A C95U A107G A113U U135A	≤ -4.2
A21U U55G G70A C93A	≤ -4.2
A22G C36G G81U A89C A97C C116A	≤ -4.2
A21G G68C C85A G92A G128U	≤ -4.2
A22G A41G A120G G141U	1.45
A21U A119U G124U	-0.526
A21U G84C A121U A122C	-1.35
A21U A22G A60G C132G U144C	-4.13

Variant	polymerase ribozyme fitness (log ratio)
A22C C27G C76U C96G G140U	≤ -4.2
A21U G71C C79G A107U A142C	≤ -4.2
A22C A28U G58C A91C	≤ -4.2
A21G C99U	0.465
A22C C35A U55A C57U G86U A119U	≤ -4.2
A22G A28C U33G C93A G94C C95U A121U	≤ -4.2
A22G G88A C96U	≤ -4.2
A21G G58C	0.298
A21U G83C	-1.57
A22G A40G A52C C75U C99A A107G C108U U134A	≤ -4.2
A21U C72U A122U	-0.472
A22G C93U	-0.637
A22G C93A	-1.55
A21U C57U C93G	-3.29
A21G C93U	-0.895
A21G U77G G88C U135G G143U A147C	≤ -4.2
A21G U31A C51G G71U A89C A106G A110U A138G	≤ -4.2
A21U A29U U33G C35U G81U G84A	-4.1
A21G G48A C54U G92A	≤ -4.2
A22G A39C U56A G80U	≤ -4.2
A21U A29U C85U G141C	≤ -4.2
A21G G94A	-1.01
A22G U31G C54U C96G A115G C123G A137C	≤ -4.2
